From patent US7691590B2, “Reducing myelin-mediated inhibition of axon regeneration” (Children's Medical Center Corporation, priority 2001, dated 2010)
Values joined by “and” are separate entries in the source; they are usually repeats but may differ in a detail not shown here. Identical values can stand only once.

T1: GST-NgR (extracellular domain of NgR) (Homo sapiens, UniProt Q9BZR6)
T1 construct: a GST fusion protein containing the entire extracellular domain of NgR (GST-NgR); made in house; OM-his made in COS-7 cells
T1 sequence (Q9BZR6 27-447 limits assumed): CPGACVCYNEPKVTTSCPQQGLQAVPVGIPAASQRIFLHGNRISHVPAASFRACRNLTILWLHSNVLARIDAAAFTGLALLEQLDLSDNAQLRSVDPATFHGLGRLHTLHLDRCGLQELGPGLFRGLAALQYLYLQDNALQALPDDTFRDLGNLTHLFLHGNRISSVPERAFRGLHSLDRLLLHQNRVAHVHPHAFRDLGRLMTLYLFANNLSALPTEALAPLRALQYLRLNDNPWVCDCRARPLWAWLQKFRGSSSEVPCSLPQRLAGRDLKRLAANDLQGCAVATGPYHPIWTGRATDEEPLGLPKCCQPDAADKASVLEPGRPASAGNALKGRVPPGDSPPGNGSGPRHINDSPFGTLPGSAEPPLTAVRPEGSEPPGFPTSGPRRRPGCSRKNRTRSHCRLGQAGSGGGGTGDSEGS

B1: OM-his: purified recombinant polyhistidine-tagged mouse OMgp protein (amino acids 23-392) expressed in COS-7 cells (protein)
chain: LCICPLQCTCTERHRHVDCSGRNLTTLPPGLQENIIHLNLSYNHFTDLHNQLTPYTNLRTLDISNNRLESLPAQLPRSLWNMSAANNNIKLLDKSDTAYQWNLKYLDVSKNMLEKVVLIKNTLRSLEVLNLSSNKLWTVPTNMPSKLHIVDLSNNSLTQILPGTLINLTNLTHLYLHNNKFTFIPEQSFDQLLQLQEITLHNNRWSCDHKQNITYLLKWVMETKAHVIGTPCSKQVSSLKEQSMYPTPPGFTSSLFTMSEMQTVDTINSLSMVTQPKVTKTPKQYRGKETTFGVTLSKDTTFSSTDRAVVAYPEDTPTEMTNSHEAAAATLTIHLQDGMSSNASLTSATKSPPSPVTLSIARGMPNNFSE
modifications: left off: small tags and cut ends
notes: purified recombinant polyhistidine-tagged mouse OMgp protein (amino acids 23-392) expressed in COS-7 cells
B2: AP-66: alkaline phosphatase fusion protein containing the 66 amino acid extracellular domain of Nogo-A (protein)
chain: RIYKGVIQAIQKSDEGHPFRAYLESEVAISEELVQKYSNSALGHVNCTIKELRRLFLVDDLVDSLK
modifications: also: fused to alkaline phosphatase
notes: alkaline phosphatase fusion protein containing the 66 amino acid extracellular domain of Nogo-A
B3: OMgp: oligodendrocyte-myelin glycoprotein, GPI-anchored CNS myelin protein (protein, UniProt P23515 25-417, looked up)
Oligodendrocyte-myelin …: ICPLQCICTERHRHVDCSGRNLSTLPSGLQENIIHLNLSYNHFTDLHNQLTQYTNLRTLDISNNRLESLPAHLPRSLWNMSAANNNIKLLDKSDTAYQWNLKYLDVSKNMLEKVVLIKNTLRSLEVLNLSSNKLWTVPTNMPSKLHIVDLSNNSLTQILPGTLINLTNLTHLYLHNNKFTFIPDQSFDQLFQLQEITLYNNRWSCDHKQNITYLLKWMMETKAHVIGTPCSTQISSLKEHNMYPTPSGFTSSLFTVSGMQTVDTINSLSVVTQPKVTKIPKQYRTKETTFGATLSKDTTFTSTDKAFVPYPEDTSTETINSHEAAAATLTIHLQDGMVTNTSLTSSTKSSPTPMTLSITSGMPNNFSEMPQQSTTLNLWREETTTNVKTPLPS
B4: Semaphorin 3A: control growth cone collapsing protein acting through neuropilin-1 and plexin receptors (protein, UniProt Q14563 21-771, looked up)
Semaphorin-3A: NYQNGKNNVPRLKLSYKEMLESNNVITFNGLANSSSYHTFLLDEERSRLYVGAKDHIFSFDLVNIKDFQKIVWPVSYTRRDECKWAGKDILKECANFIKVLKAYNQTHLYACGTGAFHPICTYIEIGHHPEDNIFKLENSHFENGRGKSPYDPKLLTASLLIDGELYSGTAADFMGRDFAIFRTLGHHHPIRTEQHDSRWLNDPKFISAHLISESDNPEDDKVYFFFRENAIDGEHSGKATHARIGQICKNDFGGHRSLVNKWTTFLKARLICSVPGPNGIDTHFDELQDVFLMNFKDPKNPVVYGVFTTSSNIFKGSAVCMYSMSDVRRVFLGPYAHRDGPNYQWVPYQGRVPYPRPGTCPSKTFGGFDSTKDLPDDVITFARSHPAMYNPVFPMNNRPIVIKTDVNYQFTQIVVDRVDAEDGQYDVMFIGTDVGTVLKVVSIPKETWYDLEEVLLEEMTVFREPTAISAMELSTKQQQLYIGSTAGVAQLPLHRCDIYGKACAECCLARDPYCAWDGSACSRYFPTAKRRTRRQDIRNGDPLTHCSDLHHDNHHGHSPEERIIYGVENSSTFLECSPKSQRALVYWQFQRRNEERKEEIRVDDHIIRTDQGLLLRSLQQKDSGNYLCHAVEHGFIQTLLKVTLEVIDTEHLEELLHKDDDGDGSKTKEMSNSMTPSQKVWYRDFMQLINHPNLNTMDEFCEQVWKRDRKQRRQRPGHTPGNSNKWKHLQENKKGRNRRTHEFERAPRSV

Legend:
[1] = test system: growth cones of E13 chick DRG neurons; test: Growth cone collapse assay with E13 chick DRG explants; assay type: cell-based; details: for EC50: E13 chick DRG growth cones, read-out: effective concentration for half-maximal response (EC50), growth cone collapse; for growth cone collapsing activity after PI-PLC treatment of the neurons: PI-PLC pre-incubation
Excerpt: OMgp is a Physiological Nogo Receptor Ligand and Inhibitor of Neurite Outgrowth. To examine whether any GPI-linked proteins in CNS myelin may act as inhibitors of neurite outgrowth, we treated purified bovine white matter myelin with phosphatidylinositol-specific phospholipase C (PI-PLC) and examined the released proteins for their ability to alter growth cone morphology in a growth cone collapse assay using embryonic day 13 chick dorsal root ganglia (E13 DRG)^6,9,10. […] Since the size of this band was similar to that of a previously identified CNS myelin protein OMgp^11,12, we used antibodies specific for OMgp to detect enrichment of cleaved OMgp in the PI-PLC supernatants by Western blot. […] Next, we examined whether purified recombinant OMgp protein was able to act as an inhibitor of neurite outgrowth in two well-established in vitro assays, the growth cone collapse^6,9,13 and the neurite outgrowth assays^3-7,9.
Growth Cone Collapse and Neurite Outgrowth Assays. Chick E13 DRG and E7 retina were isolated and cultured as described previously^9,10. DRG explants cultured overnight were used for growth cone collapse assays. To assess the effects of PI-PLC treatment, cultures were pre-incubated with 2 U/ml PI-PLC for 30 min prior to treatment with individual test proteins for an additional 30 min. To express NgR in E7 retinal ganglion neurons, we infected the explants with recombinant HSV for 24 hr. After incubation with each test protein for 30 min, retinal explants were fixed in 4% paraformaldehyde and 15% sucrose. Infection of HSV-LacZ was detected by a standard b-galatosidase staining protocol^20. FLAG-NgR expression was detected by incubating paraformaldehyde-fixed cultures with M2 anti-FLAG antibody (Sigma). Bound antibody was detected by incubation with AP-conjugated […] IgG second antibody and reaction with NBT and BCIP (Vector labs). Growth cone collapse was quantified only in those positively stained for b-galatosidase or immunoreactive for the FLAG epitope.

[2] = test system: cerebellar granule neurons (CGN); test: Neurite outgrowth assay with cerebellar granule neurons; assay type: cell-based; details: P7-9 rat CGN
Excerpt: To deplete OMgp, myelin was first solublized with 1% octylglucoside and the resultant extract was passed twice through columns with PNA-Agarose (Vector Laboratories) or control Agarose beads as described previously^12. The OMgp-enriched fraction was obtained by eluting the PNA-Agarose column with buffer containing 0.5 M D-galactose. As a significant portion of OMgp co-fractionated with Nogo-A in anion exchange columns^12, we enriched MAG or Nogo-A from myelin by applying the flow-through fractions from the PNA-Agarose columns onto a Q-Sepharose (Sigma) column^15. The column was then eluted stepwise with equal amount of buffers containing 0.15 M (MAG-enriched), 0.45 M (Nogo-A enriched), or 1.0 M NaCl^15. Aliquots of individual fractions were tested for their inhibitory activity in the neurite outgrowth assay as described previously^15,16,21.
Neurite outgrowth assays were performed as described previously^15,21. Briefly, P7-9 rat CGNs were dissected and then plated at a density of 1×10^5 cells per well. The cells were cultured for 24 hr prior to fixation with 4% paraformaldehyde and staining with a neuronal specific anti-b-tubulin antibody (TuJ-1, Covance). Quantification of neurite length and statistical analysis were performed as described previously^22.

[3] = molecular target: T1, GST-NgR (extracellular domain of NgR); test: Co-precipitation with GST-NgR on glutathione-Agarose beads; assay type: binding; details: for competition for binding to NgR: cell surface binding and co-precipitation assay
Protocol: To investigate the mechanisms by which OMgp inhibits neurite outgrowth, we used an expression cloning strategy^9,13,16 to identify cell surface OMgp-binding proteins. […] From pools of an adult human brain cDNA expression library, we isolated two cDNAs that encoded OMgp-binding proteins. […] We then established a CHO cell line stably expressing the NgR and determined the binding affinity of expressed NgR for AP-OM as 5 nM, similar to what had been determined for Nogo-66 (7 nM, ref. 9). […] We next performed co-precipitation experiments by incubating GST or a GST fusion protein containing the entire extracellular domain of NgR (GST-NgR) with OM-his alone or in the presence of AP or AP-66 protein. […] We next determined which domain(s) of OMgp was responsible for binding to NgR. Like NgR, OMgp is also a GPI-linked protein containing a leucine-rich repeat (LRR) domain. […] In addition, the C-terminal domain with serine-threonine repeats (AP-S/T) alone was also able to bind, though less strongly, to NgR expressing cells.
In co-precipitation experiments, 2 mg GST or GST-NgR were first immobilized to glutathione-Agarose beads and the beads were further incubated with or without 1 mg OM-his in the presence of 2 mg of AP or AP-66 at 4° C. for 2 hr. After extensive washing, the bound proteins were resolved with SDS-PAGE and detected by Western blotting.

[4] = test system: chick E7 retinal ganglion neurons (RGN) expressing human NgR; test: Growth cone collapse in E7 retinal ganglion neurons expressing FLAG-NgR (HSV infection); assay type: cell-based; details: E7 RGN infected with HSV FLAG-NgR
Excerpt: To assess whether NgR is capable of mediating OMgp-induced inhibitory activity on neurite outgrowth, we next took a gain-of-function approach to examine whether expression of NgR was able to confer OMgp-responsiveness to otherwise insensitive neurons. It has been shown previously that chick E7 retinal ganglion neurons (RGN) are insensitive to Nogo-66, but that introduction of exogenous NgR in these neurons rendered their growth cones to be responsive to Nogo-66^9. Using the same strategy, we made a recombinant herpes simplex virus (HSV) that drives expression of a FLAG-tagged full-length human NgR (FLAG-NgR) in infected neurons. Upon infection, 80% of the E7 RGNs expressed the FLAG-NgR protein as assessed by immunocytochemistry with an anti-FLAG antibody. […] Furthermore, the growth cones of NgR-expressing axons also become collapsible by OMgp.
Growth Cone Collapse and Neurite Outgrowth Assays. […] Infection of HSV-LacZ was detected by a standard b-galatosidase staining protocol^20. FLAG-NgR expression was detected by incubating paraformaldehyde-fixed cultures with M2 anti-FLAG antibody (Sigma). Bound antibody was detected by incubation with AP-conjugated […] IgG second antibody and reaction with NBT and BCIP (Vector labs). Growth cone collapse was quantified only in those positively stained for b-galatosidase or immunoreactive for the FLAG epitope.

Molecule	growth cone collapsing activity ([1]; E13 chick DRG)	EC50 [1]	inhibition of neurite outgrowth [2]	competition for binding to NgR [3]	direct binding to GST-NgR ([3]; co-precipitation, control GST did not bind)	growth cone collapsing activity after PI-PLC treatment of the neurons ([1]; E13 chick DRG)	growth cone collapse response in NgR-expressing neurons [4]
B1	induced the collapse of growth cones	~1.5 nM and 1.5 nM	inhibited neurite outgrowth	competed for binding to NgR	bound		
B2		2.3 nM		competed for binding to NgR			
B3						abolished	collapsible
B4						not affected	
